# Data as given in patent US20240158510A1 (GOVERNING COUNCIL OF THE UNIVERSITY OF TORONTO, published 2024).
# Numbering of substitutions follows the chain as printed. Read-outs that look alike come from different tables or passages of the source.
# B1: 10404/10392 (bispecific antibody, human IgG1, kappa)
# heavy chain 10392, knob: EVQLVESGGGLVQPGGSLRLSCAASGFNIYYSSIHWVRQAPGKGLEWVASISSSSGSTSYADSVKGRFTISADTSKNTAYLQMNSLRAEDTAVYYCARSYYGGGYPYALDYWGQGTLVTVSSASTKGPSVFPLAPSSKSTSGGTAALGCLVKDYFPEPVTVSWNSGALTSGVHTFPAVLQSSGLYSLSSVVTVPSSSLGTQTYICNVNHKPSNTKVDKKVEPKSCDKTHTCPPCPAPELLGGPSVFLFPPKPKDTLMISRTPEVTCVVVDVSHEDPEVKFNWYVDGVEVHNAKTKPREEQYNSTYRVVSVLTVLHQDWLNGKEYKCKVSNKALPAPIEKTISKAKGQPREPMVFDLPPSREEMTKNQVSLWCMVKGFYPSDIAVEWESNGQPENNYKTTPPVLDSDGSFFLYSKLTVDKSRWQQGNVFSCSVMHEALHNHYTQKSLSLSPGK
# heavy chain 10404, hole: EVQLVESGGGLVQPGGSLRLSCAASGFNLYSSSIHWVRQAPGKGLEWVAYIYPSYGYTSTYADSVKGRFTISADTSKNTAYLQMNSLRAEDTAVYYCARPAPYYSWYPAMDYWGQGTLVTVSSASTKGPSVFPLAPSSKSTSGGTAALGCLVKDYFPEPVTVSWNSGALTSGVHTFPAVLQSSGLYSLSSVVTVPSSSLGTQTYICNVNHKPSNTKVDKKVEPKSCDKTHTCPPCPAPELLGGPSVFLFPPKPKDTLMISRTPEVTCVVVDVSHEDPEVKFNWYVDGVEVHNAKTKPREEQYNSTYRVVSVLTVLHQDWLNGKEYKCKVSNKALPAPIEKTISKAKGQPREPQVYTLPPIRELMTSNQVSLSCAVKGFYPSDIAVEWESNGQPENNYKTTPPVLDSDGSFFLVSKLTVDKSRWQQGNVFSCSVMHEALHNHYTQKSLSLSPGK
# light chain 10404: DIQMTQSPSSLSASVGDRVTITCRASQSVSSAVAWYQQKPGKAPKLLIYSASSLYSGVPSRFSGSRSGTDFTLTISSLQPEDFATYYCQQASGSPFTFGQGTKVEIKRTVAAPSVFIFPPSDEQLKSGTASVVCLLNNFYPREAKVQWKVDNALQSGNSQESVTEQDSKDSTYSLSSTLTLSKADYEKHKVYACEVTHQGLSSPVTKSFNRGEC
# B2: IgG clone 10404, hG1/hk (pSCSTa-hG1 (10404) heavy chain, pSCSTa-hK (10404) light chain) (antibody, V domains shown)
# VH: EVQLVESGGGLVQPGGSLRLSCAASGFNLYSSSIHWVRQAPGKGLEWVAYIYPSYGYTSTYADSVKGRFTISADTSKNTAYLQMNSLRAEDTAVYYCARPAPYYSWYPAMDYWGQGTLVTVSS
# VL: DIQMTQSPSSLSASVGDRVTITCRASQSVSSAVAWYQQKPGKAPKLLIYSASSLYSGVPSRFSGSRSGTDFTLTISSLQPEDFATYYCQQASGSPFTFGQGTKVEIKR
# notes: Full-length human IgG1/kappa made in Expi293 cells
# B3: IgG 11867 (antibody, V domains shown)
# VH: EVQLVESGGGLVQPGGSLRLSCAASGFDFDSYAIHWVRQAPGKGLEWVAYFYPGHDYSTYADSVKGRFTISADTSKNTAYLQMNSLRAEDTAVYYCARPSPYFSWHQAMDYWGQGTLVTVSS
# VL: B2 VL with S92T, P95E, F96V
# notes: also called 11867 hG1
# Tests used:
# [1] = target: T1, integrin αvβ1 expressed on CHO cells (UniProt P06756 31-1048; P05556 21-798, limits assumed); assay: cell-based or functional assay
# T1 sequence (P06756 31-1048 limits assumed, chain 1 of 2): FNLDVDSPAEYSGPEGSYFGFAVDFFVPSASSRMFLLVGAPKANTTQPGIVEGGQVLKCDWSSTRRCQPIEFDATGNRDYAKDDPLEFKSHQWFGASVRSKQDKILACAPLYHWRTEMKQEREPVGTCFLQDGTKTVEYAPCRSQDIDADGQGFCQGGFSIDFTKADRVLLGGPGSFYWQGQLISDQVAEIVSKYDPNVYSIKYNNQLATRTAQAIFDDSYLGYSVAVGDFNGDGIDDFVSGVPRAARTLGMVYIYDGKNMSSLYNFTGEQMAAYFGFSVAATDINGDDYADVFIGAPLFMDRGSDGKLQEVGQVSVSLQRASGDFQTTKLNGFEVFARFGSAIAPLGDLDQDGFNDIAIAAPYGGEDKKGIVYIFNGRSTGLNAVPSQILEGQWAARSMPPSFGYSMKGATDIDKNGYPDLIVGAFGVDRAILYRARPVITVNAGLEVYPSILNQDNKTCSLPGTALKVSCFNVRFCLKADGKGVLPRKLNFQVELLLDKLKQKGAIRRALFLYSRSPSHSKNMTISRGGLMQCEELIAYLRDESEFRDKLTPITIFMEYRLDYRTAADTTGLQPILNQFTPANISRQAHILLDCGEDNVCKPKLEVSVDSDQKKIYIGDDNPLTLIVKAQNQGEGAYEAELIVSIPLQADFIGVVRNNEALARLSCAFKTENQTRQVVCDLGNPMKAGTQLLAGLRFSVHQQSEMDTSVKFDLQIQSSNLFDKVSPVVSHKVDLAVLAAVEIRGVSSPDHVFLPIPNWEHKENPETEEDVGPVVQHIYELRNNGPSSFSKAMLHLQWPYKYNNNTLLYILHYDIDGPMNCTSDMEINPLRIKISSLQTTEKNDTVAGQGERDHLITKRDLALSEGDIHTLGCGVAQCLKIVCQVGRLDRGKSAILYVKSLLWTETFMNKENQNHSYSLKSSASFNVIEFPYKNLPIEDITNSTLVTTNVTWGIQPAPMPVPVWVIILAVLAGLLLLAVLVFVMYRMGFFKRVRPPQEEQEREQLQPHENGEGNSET
# T1 sequence (P05556 21-798 limits assumed, chain 2 of 2): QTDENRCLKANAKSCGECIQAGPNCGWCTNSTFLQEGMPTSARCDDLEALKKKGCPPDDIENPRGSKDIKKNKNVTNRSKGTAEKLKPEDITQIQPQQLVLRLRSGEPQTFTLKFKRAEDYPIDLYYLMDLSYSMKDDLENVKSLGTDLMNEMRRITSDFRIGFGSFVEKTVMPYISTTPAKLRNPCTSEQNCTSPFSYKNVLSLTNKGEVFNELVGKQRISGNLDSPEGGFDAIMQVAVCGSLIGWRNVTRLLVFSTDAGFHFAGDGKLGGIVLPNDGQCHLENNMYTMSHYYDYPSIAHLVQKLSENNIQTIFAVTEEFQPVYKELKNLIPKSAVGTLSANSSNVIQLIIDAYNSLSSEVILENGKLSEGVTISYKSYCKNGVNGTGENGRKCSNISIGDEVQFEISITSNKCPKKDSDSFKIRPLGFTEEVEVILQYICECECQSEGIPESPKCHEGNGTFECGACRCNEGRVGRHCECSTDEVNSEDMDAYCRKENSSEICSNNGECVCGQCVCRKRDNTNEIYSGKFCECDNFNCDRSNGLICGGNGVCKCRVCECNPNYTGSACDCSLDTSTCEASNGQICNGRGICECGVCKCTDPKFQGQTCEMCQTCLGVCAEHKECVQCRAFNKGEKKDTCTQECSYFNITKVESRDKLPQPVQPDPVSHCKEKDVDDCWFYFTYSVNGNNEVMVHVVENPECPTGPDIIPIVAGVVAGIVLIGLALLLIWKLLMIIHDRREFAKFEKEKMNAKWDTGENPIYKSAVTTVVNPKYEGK
# [2] = target: T1, integrin αvβ1 expressed on CHO cells; assay: cell-based or functional assay; remark: listed apart in the source
# [3] = target: T2, integrin αvβ8 expressed on CHO cells (UniProt P06756 31-1048; P26012 43-769, limits assumed); assay: cell-based or functional assay
# T2 sequence (P06756 31-1048 limits assumed, chain 1 of 2): as the sequence (P06756 31-1048 limits assumed, chain 1 of 2) above
# T2 sequence (P26012 43-769 limits assumed, chain 2 of 2): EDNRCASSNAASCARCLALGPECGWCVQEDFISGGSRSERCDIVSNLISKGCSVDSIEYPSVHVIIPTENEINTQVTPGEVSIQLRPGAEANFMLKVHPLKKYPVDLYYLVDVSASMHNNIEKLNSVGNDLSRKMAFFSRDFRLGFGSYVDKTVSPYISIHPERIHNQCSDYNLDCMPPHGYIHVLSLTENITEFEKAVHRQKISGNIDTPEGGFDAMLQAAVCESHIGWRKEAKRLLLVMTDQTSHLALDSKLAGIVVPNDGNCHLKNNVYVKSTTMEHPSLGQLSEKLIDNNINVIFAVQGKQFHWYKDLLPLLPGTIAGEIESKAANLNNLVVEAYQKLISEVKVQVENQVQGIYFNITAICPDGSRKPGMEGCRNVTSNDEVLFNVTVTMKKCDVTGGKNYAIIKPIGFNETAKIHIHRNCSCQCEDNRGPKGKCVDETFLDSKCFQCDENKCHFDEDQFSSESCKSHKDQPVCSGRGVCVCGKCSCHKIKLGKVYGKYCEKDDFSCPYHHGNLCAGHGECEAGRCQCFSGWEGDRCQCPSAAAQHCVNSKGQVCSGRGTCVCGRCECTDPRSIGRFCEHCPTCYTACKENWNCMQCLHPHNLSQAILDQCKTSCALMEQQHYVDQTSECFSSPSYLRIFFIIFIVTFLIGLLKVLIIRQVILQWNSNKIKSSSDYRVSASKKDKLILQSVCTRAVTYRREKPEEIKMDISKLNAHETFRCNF
# [4] = target: T1, integrin αvβ1 expressed on CHO cells; assay: cell-based or functional assay; remark: listed apart in the source
# [5] = target: T3, integrin αvβ3 expressed on CHO cells (UniProt P06756 31-1048; P05106 27-788, limits assumed); assay: cell-based or functional assay
# T3 sequence (P06756 31-1048 limits assumed, chain 1 of 2): as the sequence (P06756 31-1048 limits assumed, chain 1 of 2) above
# T3 sequence (P05106 27-788 limits assumed, chain 2 of 2): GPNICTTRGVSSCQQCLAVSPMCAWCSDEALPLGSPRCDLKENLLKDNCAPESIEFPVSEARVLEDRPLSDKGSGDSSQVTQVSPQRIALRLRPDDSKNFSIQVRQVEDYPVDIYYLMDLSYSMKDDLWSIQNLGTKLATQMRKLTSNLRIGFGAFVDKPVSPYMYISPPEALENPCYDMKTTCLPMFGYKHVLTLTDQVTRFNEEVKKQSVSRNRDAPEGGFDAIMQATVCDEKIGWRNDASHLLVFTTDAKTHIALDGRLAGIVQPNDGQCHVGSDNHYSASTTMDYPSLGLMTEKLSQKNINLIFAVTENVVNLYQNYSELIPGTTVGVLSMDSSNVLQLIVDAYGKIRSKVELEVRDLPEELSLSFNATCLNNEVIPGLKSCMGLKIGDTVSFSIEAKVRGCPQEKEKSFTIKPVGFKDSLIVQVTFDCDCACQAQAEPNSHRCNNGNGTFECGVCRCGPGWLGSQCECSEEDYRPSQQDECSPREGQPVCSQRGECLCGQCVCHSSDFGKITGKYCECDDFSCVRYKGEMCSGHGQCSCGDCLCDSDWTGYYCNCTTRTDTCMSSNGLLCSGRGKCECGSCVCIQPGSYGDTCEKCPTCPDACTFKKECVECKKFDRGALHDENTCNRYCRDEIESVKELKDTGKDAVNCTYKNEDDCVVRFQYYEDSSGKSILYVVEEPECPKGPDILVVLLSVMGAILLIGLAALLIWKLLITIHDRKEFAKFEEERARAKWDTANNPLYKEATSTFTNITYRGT
# [6] = target: T4, integrin αvβ5 expressed on CHO cells (UniProt P06756 31-1048; P18084 24-799, limits assumed); assay: cell-based or functional assay
# T4 sequence (P06756 31-1048 limits assumed, chain 1 of 2): as the sequence (P06756 31-1048 limits assumed, chain 1 of 2) above
# T4 sequence (P18084 24-799 limits assumed, chain 2 of 2): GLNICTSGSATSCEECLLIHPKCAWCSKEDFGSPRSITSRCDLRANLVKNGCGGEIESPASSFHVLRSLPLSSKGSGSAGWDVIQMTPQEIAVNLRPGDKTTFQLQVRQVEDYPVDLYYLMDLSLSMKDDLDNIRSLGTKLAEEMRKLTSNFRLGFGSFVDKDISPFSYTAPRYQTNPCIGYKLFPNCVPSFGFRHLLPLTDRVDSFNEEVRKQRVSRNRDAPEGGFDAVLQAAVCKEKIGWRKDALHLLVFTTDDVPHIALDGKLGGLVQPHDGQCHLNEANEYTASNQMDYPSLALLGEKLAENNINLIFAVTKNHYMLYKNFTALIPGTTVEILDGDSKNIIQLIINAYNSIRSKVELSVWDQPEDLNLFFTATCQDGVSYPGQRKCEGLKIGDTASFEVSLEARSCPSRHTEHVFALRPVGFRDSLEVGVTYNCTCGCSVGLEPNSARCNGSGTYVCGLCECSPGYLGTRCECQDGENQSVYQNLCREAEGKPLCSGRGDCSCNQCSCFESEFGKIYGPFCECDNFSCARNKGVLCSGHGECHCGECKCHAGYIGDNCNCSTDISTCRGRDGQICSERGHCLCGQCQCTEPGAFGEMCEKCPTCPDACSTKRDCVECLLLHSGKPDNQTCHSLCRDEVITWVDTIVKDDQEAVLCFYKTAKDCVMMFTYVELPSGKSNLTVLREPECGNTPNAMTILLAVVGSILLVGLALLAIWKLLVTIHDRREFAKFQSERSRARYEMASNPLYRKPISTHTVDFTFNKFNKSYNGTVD
# [7] = target: T1, integrin αvβ1 expressed on CHO cells; assay: flow cytometry titration on integrin-αvβ1 CHO cells; binder taken from the context of FIG. 10 and Example 2
# Experimental: (§1) Adherent cells were brought into suspension using PBS supplemented with 10 mM ethylenediaminetetraacetic acid (EDTA). The cells were washed with PBS, resuspended in PBS supplemented with 1% BSA, and incubated for 15 minutes at 4° C. The cells were labelled with 50 μl of Fab-phage culture supernatant, or 500 nM Fab, or IgG for 30 minutes at 4° C., then washed with PBS and resuspended in PBS supplemented with 1% BSA. Next, the cells were labelled with anti-Fab (for Fab-phage), or anti-Flag (for Fabs) or anti-Fc (for IgGs) conjugated Alexa-488 secondary Ab according to manufacturer's instructions. Data were collected using a CytoFLEX-S flow-cytometer using a 488-nm laser with 530/25 nm filter settings. The cells were analyzed in PBS, and all acquired live events were greater than 10,000 cells per sample. Quantitation analysis was carried out using FlowJo v10.2 Software. For Ab cellular titration analysis, the Abs were added to antigen positive cells in duplicate samples from a range of 500 pM to 1 μM. The mean fluorescence signal values were subtracted from the control antigen negative cells signals, and EC50 determined using Graph-pad Prism, where x is the Fab concentration: […]
# [8] = target: T5, integrin αvβ6 expressed on CHO cells (UniProt P06756 31-1048; P18564 22-788, limits assumed); assay: flow cytometry titration on integrin-expressing CHO cells
# T5 construct: whole, on cells
# T5 sequence (P06756 31-1048 limits assumed, chain 1 of 2): as the sequence (P06756 31-1048 limits assumed, chain 1 of 2) above
# T5 sequence (P18564 22-788 limits assumed, chain 2 of 2): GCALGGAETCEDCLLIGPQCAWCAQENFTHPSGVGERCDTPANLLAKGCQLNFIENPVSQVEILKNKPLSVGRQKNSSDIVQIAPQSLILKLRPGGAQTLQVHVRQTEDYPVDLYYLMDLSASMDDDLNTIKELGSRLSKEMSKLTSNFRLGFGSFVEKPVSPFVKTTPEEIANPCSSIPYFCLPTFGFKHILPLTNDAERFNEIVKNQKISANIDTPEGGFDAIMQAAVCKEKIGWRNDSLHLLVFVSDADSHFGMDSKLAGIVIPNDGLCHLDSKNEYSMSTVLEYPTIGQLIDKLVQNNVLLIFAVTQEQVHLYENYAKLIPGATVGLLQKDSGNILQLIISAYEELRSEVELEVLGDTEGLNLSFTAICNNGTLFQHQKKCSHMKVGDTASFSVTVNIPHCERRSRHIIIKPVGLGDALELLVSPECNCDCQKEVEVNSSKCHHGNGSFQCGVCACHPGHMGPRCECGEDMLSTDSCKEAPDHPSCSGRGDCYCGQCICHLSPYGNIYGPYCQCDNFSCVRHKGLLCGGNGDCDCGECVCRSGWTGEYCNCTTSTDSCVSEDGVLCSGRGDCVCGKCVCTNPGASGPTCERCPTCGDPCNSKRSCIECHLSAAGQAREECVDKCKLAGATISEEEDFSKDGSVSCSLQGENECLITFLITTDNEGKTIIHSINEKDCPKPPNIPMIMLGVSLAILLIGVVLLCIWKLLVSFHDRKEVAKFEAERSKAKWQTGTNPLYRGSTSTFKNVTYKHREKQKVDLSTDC
# Experimental: as §1
# [9] = target: T2, integrin αvβ8 expressed on CHO cells; assay: as above
# Experimental: as §1
# [10] = target: T1, integrin αvβ1 expressed on CHO cells; assay: as above
# Experimental: as §1
# [11] = target: T3, integrin αvβ3 expressed on CHO cells; assay: as above
# Experimental: as §1
# [12] = target: T4, integrin αvβ5 expressed on CHO cells; assay: as above
# Experimental: as §1
# [13] = target: T6, recombinant human integrin-αvβ1 (human, UniProt P06756 31-992; P05556 21-728, limits assumed); assay: IgG titration on recombinant human integrin αvβ1, one site-total fit; assay format not stated; set-up: Bmax: unit not given here
# T6 construct: also called Recombinant Human Integrins
# [14] = target: T7, recombinant mouse integrin-αvβ1 (mouse, UniProt P43406 31-988; P09055 21-728, limits assumed); assay: IgG titration on recombinant mouse integrin αvβ1, one site-total fit; assay format not stated
# T7 construct: also called Recombinant Mouse Integrins
# [15] = target: T1, integrin αvβ1 expressed on CHO cells; assay: cell-based or functional assay; remark: listed apart in the source
# [16] = target: T5, integrin αvβ6 expressed on CHO cells; assay: cell-based or functional assay
# [17] = target: T2, integrin αvβ8 expressed on CHO cells; assay: cell-based or functional assay; remark: listed apart in the source
# [18] = target: T1, integrin αvβ1 expressed on CHO cells; assay: cell-based or functional assay; remark: listed apart in the source
# [19] = target: T3, integrin αvβ3 expressed on CHO cells; assay: cell-based or functional assay; remark: listed apart in the source
# [20] = target: T4, integrin αvβ5 expressed on CHO cells; assay: cell-based or functional assay; remark: listed apart in the source
# [21] = target: T1, integrin αvβ1 expressed on CHO cells; assay: flow cytometry titration on AvB1 CHO cells
# Experimental: as §1
# [22] = target: T3, integrin αvβ3 expressed on CHO cells; assay: flow cytometry titration on AvB3 CHO cells
# Experimental: as §1
# [23] = target: T4, integrin αvβ5 expressed on CHO cells; assay: flow cytometry titration on AvB5 CHO cells
# Experimental: as §1
# [24] = target: T5, integrin αvβ6 expressed on CHO cells; assay: flow cytometry titration on AvB6 CHO cells
# Experimental: as §1
# [25] = target: T2, integrin αvβ8 expressed on CHO cells; assay: flow cytometry titration on AvB8 CHO cells
# Experimental: as §1
# [26] = target: T1, integrin αvβ1 expressed on CHO cells; assay: flow cytometry titration on integrin-αvβ1 CHO cells (curves in FIG. 12K)
# Experimental: as §1
binder,measurement,setting,value
B1,"adhesion of integrin-αvβ1 CHO cells to LAP-TGFβ, normalised confluence, number over the bar, untreated = 100",[1],16.7%
same,"IC50, inhibition of integrin-αvβ1 CHO cell adhesion to LAP-TGFβ; no antibody named on the panel, binder taken from the context of FIG. 10",[2],2.91 nM
same,"IC50, inhibition of CHO cell adhesion to LAP-TGFβ",[3],55.1 nM
same,"IC50, inhibition of CHO cell adhesion to LAP-TGFβ",[4],9.83 nM
same,"IC50, inhibition of CHO cell adhesion to LAP-TGFβ",[5],24.2 nM
same,"IC50, inhibition of CHO cell adhesion to LAP-TGFβ",[6],18.2 nM
same,EC50,[7],2.39 nM
B2,"adhesion of integrin-αvβ1 CHO cells to LAP-TGFβ, normalised confluence, number over the bar, untreated = 100",[1],46.2%
same,"IC50, inhibition of CHO cell adhesion to LAP-TGFβ",[3],< 1 nM
same,"IC50, inhibition of CHO cell adhesion to LAP-TGFβ",[4],13.2 nM
same,"IC50, inhibition of CHO cell adhesion to LAP-TGFβ",[5],23.8 nM
same,"IC50, inhibition of CHO cell adhesion to LAP-TGFβ",[6],3.64 nM
same,EC50,[8],2.96 nM
same,EC50,[9],14.3 nM
same,EC50,[10],2.43 nM
same,EC50,[11],13.1 nM
same,EC50,[12],2.45 nM
same,Bmax,[13],1.09
same,Kd,[13],0.271 nM
same,Bmax,[14],1.09
B3,"IC50, inhibition of integrin-αvβ1 CHO cell adhesion to LAP-TGFβ (curves in FIG. 12L)",[15],2.9 nM
same,"IC50, inhibition of CHO cell adhesion to LAP-TGFβ",[16],2.1 nM
same,"IC50, inhibition of CHO cell adhesion to LAP-TGFβ",[17],1.3 nM
same,"IC50, inhibition of CHO cell adhesion to LAP-TGFβ",[18],1.6 nM
same,"IC50, inhibition of CHO cell adhesion to LAP-TGFβ",[19],2.4 nM
same,"IC50, inhibition of CHO cell adhesion to LAP-TGFβ",[20],4.1 nM
same,EC50,[21],2.6 nM
same,EC50,[22],6.8 nM
same,EC50,[23],1.2 nM
same,EC50,[24],1.7 nM
same,EC50,[25],8.9 nM
same,EC50,[26],2.6 nM
